# Test results from patent US20260242735A1.
# Assays:
# Test in all cases: alanine scan, flow cytometry, HEK293-T
# human CD33 P189A (human) = human CD33 P189A (human) (UniProt P20138)
# human CD33 I147A (human) = human CD33 I147A (human) (UniProt P20138)
# human CD33 K130A (human) = human CD33 K130A (human) (UniProt P20138)
# human CD33 G188A (human) = human CD33 G188A (human) (UniProt P20138)
# human CD33 L93A (human) = human CD33 L93A (human) (UniProt P20138)
# human CD33 V82A (human) = human CD33 V82A (human) (UniProt P20138)
# human CD33 A108S (human) = human CD33 A108S (human) (UniProt P20138)
# human CD33 S194A (human) = human CD33 S194A (human) (UniProt P20138)
# human CD33 D79A (human) = human CD33 D79A (human) (UniProt P20138)
# human CD33 E85A (human) = human CD33 E85A (human) (UniProt P20138)
# human CD33 R69A (human) = human CD33 R69A (human) (UniProt P20138)
# human CD33 Q80A (human) = human CD33 Q80A (human) (UniProt P20138)
# human CD33 Q133A (human) = human CD33 Q133A (human) (UniProt P20138)
# human CD33 I67A (human) = human CD33 I67A (human) (UniProt P20138)
# human CD33 A183S (human) = human CD33 A183S (human) (UniProt P20138)
# human CD33 K52A (human) = human CD33 K52A (human) (UniProt P20138)
# human CD33 G88A (human) = human CD33 G88A (human) (UniProt P20138)
# human CD33 S195A (human) = human CD33 S195A (human) (UniProt P20138)
# human CD33 E154A (human) = human CD33 E154A (human) (UniProt P20138)
# human CD33 W60A (human) = human CD33 W60A (human) (UniProt P20138)
# human CD33 N100A (human) = human CD33 N100A (human) (UniProt P20138)
# human CD33 L134A (human) = human CD33 L134A (human) (UniProt P20138)
# human CD33 S54A (human) = human CD33 S54A (human) (UniProt P20138)
# human CD33 K77A (human) = human CD33 K77A (human) (UniProt P20138)
# human CD33 P184A (human) = human CD33 P184A (human) (UniProt P20138)
# human CD33 G58A (human) = human CD33 G58A (human) (UniProt P20138)
# human CD33 Q171A (human) = human CD33 Q171A (human) (UniProt P20138)
# human CD33 R62A (human) = human CD33 R62A (human) (UniProt P20138)
# human CD33 I47A (human) = human CD33 I47A (human) (UniProt P20138)
# human CD33 L92A (human) = human CD33 L92A (human) (UniProt P20138)
# human CD33 S186A (human) = human CD33 S186A (human) (UniProt P20138)
# human CD33 P155A (human) = human CD33 P155A (human) (UniProt P20138)
# human CD33 T142A (human) = human CD33 T142A (human) (UniProt P20138)
# human CD33 Q87A (human) = human CD33 Q87A (human) (UniProt P20138)
# human CD33 S164A (human) = human CD33 S164A (human) (UniProt P20138)
# human CD33 Q83A (human) = human CD33 Q83A (human) (UniProt P20138)
# human CD33 T139A (human) = human CD33 T139A (human) (UniProt P20138)
# human CD33 I176A (human) = human CD33 I176A (human) (UniProt P20138)
# human CD33 S115A (human) = human CD33 S115A (human) (UniProt P20138)
# human CD33 T152A (human) = human CD33 T152A (human) (UniProt P20138)
# human CD33 Y127A (human) = human CD33 Y127A (human) (UniProt P20138)
# human CD33 P132A (human) = human CD33 P132A (human) (UniProt P20138)
# human CD33 R109A (human) = human CD33 R109A (human) (UniProt P20138)
# human CD33 T192A (human) = human CD33 T192A (human) (UniProt P20138)
# human CD33 P150A (human) = human CD33 P150A (human) (UniProt P20138)
# Sequence of human CD33 W60A (human) (P20138 18-364 W60A limits assumed): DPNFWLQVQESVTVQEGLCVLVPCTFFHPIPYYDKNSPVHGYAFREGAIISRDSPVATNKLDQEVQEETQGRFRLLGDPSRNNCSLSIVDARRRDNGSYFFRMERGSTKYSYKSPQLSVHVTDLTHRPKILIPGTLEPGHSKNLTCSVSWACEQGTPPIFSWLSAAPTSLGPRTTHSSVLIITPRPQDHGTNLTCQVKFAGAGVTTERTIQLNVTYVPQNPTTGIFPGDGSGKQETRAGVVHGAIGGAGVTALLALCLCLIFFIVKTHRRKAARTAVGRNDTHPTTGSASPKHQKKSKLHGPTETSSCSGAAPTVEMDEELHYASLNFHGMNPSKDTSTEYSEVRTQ
# Sequence of human CD33 S186A (human) (P20138 18-364 S186A limits assumed): as the sequence (P20138 18-364 W60A limits assumed) above, with A43W, S169A counted along it
# Sequence of human CD33 P132A (human) (P20138 18-364 P132A limits assumed): as the sequence (P20138 18-364 W60A limits assumed) above, with A43W, P115A counted along it
# Sequence of human CD33 S54A (human) (P20138 18-364 S54A limits assumed): as the sequence (P20138 18-364 W60A limits assumed) above, with S37A, A43W counted along it
# Sequence of human CD33 T142A (human) (P20138 18-364 T142A limits assumed): as the sequence (P20138 18-364 W60A limits assumed) above, with A43W, T125A counted along it
# Sequence of human CD33 V82A (human) (P20138 18-364 V82A limits assumed): as the sequence (P20138 18-364 W60A limits assumed) above, with A43W, V65A counted along it
# Sequence of human CD33 I47A (human) (P20138 18-364 I47A limits assumed): as the sequence (P20138 18-364 W60A limits assumed) above, with I30A, A43W counted along it
# Sequence of human CD33 G58A (human) (P20138 18-364 G58A limits assumed): as the sequence (P20138 18-364 W60A limits assumed) above, with G41A, A43W counted along it
# Sequence of human CD33 I67A (human) (P20138 18-364 I67A limits assumed): as the sequence (P20138 18-364 W60A limits assumed) above, with A43W, I50A counted along it
# Sequence of human CD33 N100A (human) (P20138 18-364 N100A limits assumed): as the sequence (P20138 18-364 W60A limits assumed) above, with A43W, N83A counted along it
# Sequence of human CD33 Q87A (human) (P20138 18-364 Q87A limits assumed): as the sequence (P20138 18-364 W60A limits assumed) above, with A43W, Q70A counted along it
# Sequence of human CD33 R109A (human) (P20138 18-364 R109A limits assumed): as the sequence (P20138 18-364 W60A limits assumed) above, with A43W, R92A counted along it
# Sequence of human CD33 I147A (human) (P20138 18-364 I147A limits assumed): as the sequence (P20138 18-364 W60A limits assumed) above, with A43W, I130A counted along it
# Sequence of human CD33 T139A (human) (P20138 18-364 T139A limits assumed): as the sequence (P20138 18-364 W60A limits assumed) above, with A43W, T122A counted along it
substance,measurement,setting,value
Refmab #7 (WM53) (antibody),Mean % WT Binding,human CD33 P189A (human),119 % WT binding
same,Mean % WT Binding,human CD33 I147A (human),92 % WT binding
same,Mean % WT Binding,human CD33 K130A (human),148 % WT binding
same,Mean % WT Binding,human CD33 G188A (human),127 % WT binding
same,Mean % WT Binding,human CD33 L93A (human),102 % WT binding
same,Mean % WT Binding,human CD33 V82A (human),108 % WT binding
same,Mean % WT Binding,human CD33 A108S (human),120 % WT binding
same,Mean % WT Binding,human CD33 S194A (human),112 % WT binding
same,Mean % WT Binding,human CD33 D79A (human),83.5 % WT binding
same,Mean % WT Binding,human CD33 E85A (human),126 % WT binding
same,Mean % WT Binding,human CD33 R69A (human),146 % WT binding
same,Mean % WT Binding,human CD33 Q80A (human),124 % WT binding
same,Mean % WT Binding,human CD33 Q133A (human),100 % WT binding
same,Mean % WT Binding,human CD33 I67A (human),135 % WT binding
same,Mean % WT Binding,human CD33 A183S (human),102 % WT binding
same,Mean % WT Binding,human CD33 K52A (human),76.8 % WT binding
same,Mean % WT Binding,human CD33 G88A (human),115 % WT binding
same,Mean % WT Binding,human CD33 S195A (human),117 % WT binding
same,Mean % WT Binding,human CD33 E154A (human),108 % WT binding
same,Mean % WT Binding,human CD33 W60A (human),2.1 % WT binding
same,Mean % WT Binding,human CD33 N100A (human),128 % WT binding
same,Mean % WT Binding,human CD33 L134A (human),96.6 % WT binding
same,Mean % WT Binding,human CD33 S54A (human),100 % WT binding
same,Mean % WT Binding,human CD33 K77A (human),117 % WT binding
same,Mean % WT Binding,human CD33 P184A (human),106 % WT binding
same,Mean % WT Binding,human CD33 G58A (human),97.2 % WT binding
same,Mean % WT Binding,human CD33 Q171A (human),121 % WT binding
same,Mean % WT Binding,human CD33 R62A (human),114 % WT binding
same,Mean % WT Binding,human CD33 I47A (human),50.2 % WT binding
same,Mean % WT Binding,human CD33 L92A (human),89.9 % WT binding
same,Mean % WT Binding,human CD33 S186A (human),93.4 % WT binding
same,Mean % WT Binding,human CD33 P155A (human),107 % WT binding
same,Mean % WT Binding,human CD33 T142A (human),113 % WT binding
same,Mean % WT Binding,human CD33 Q87A (human),90.1 % WT binding
same,Mean % WT Binding,human CD33 S164A (human),123 % WT binding
same,Mean % WT Binding,human CD33 Q83A (human),120 % WT binding
same,Mean % WT Binding,human CD33 T139A (human),121 % WT binding
same,Mean % WT Binding,human CD33 I176A (human),103 % WT binding
same,Mean % WT Binding,human CD33 S115A (human),95.1 % WT binding
same,Mean % WT Binding,human CD33 T152A (human),102 % WT binding
same,Mean % WT Binding,human CD33 Y127A (human),175 % WT binding
same,Mean % WT Binding,human CD33 P132A (human),104 % WT binding
same,Mean % WT Binding,human CD33 R109A (human),127 % WT binding
same,Mean % WT Binding,human CD33 T192A (human),102 % WT binding
same,Mean % WT Binding,human CD33 P150A (human),115 % WT binding
